The source of these data is patent publication US5523287A, “Thrombin-inhibitory protein from assassin bugs” (BASF Aktiengesellschaft, priority 1991, dated 1996).

A short description of data set [1]: Determination of the isoelectric point by isoelectric focusing. The settings on record: Ampholine PAGplate pH 3.5-9.5, located by thrombin inhibition assay. It is filed as physicochemical. On the procedure: The determination was carried out with an LKB Multiphor 2117 (horizontal system) and an LKB 2103 power supply. Precast gels were employed (Pharmacia Ampholine PAGplate pH 3.5-9.5). The standard proteins employed were amyloglucosidase, pH 3.5; soybean trypsin inhibitor, pH 4.55; β-lactoglobulin A, pH 5.2; bovine carbonic anhydrase, pH 5.85; human carbonic anhydrase, pH 6.55; horse myoglobin, pH 6.85 and 7.35; lentil lectin, pH 8.15, 8.45, 8.65 and trypsinogen, pH 9.3.
Focusing conditions: 1500 volts, 30 watts. Buffers:
cathode 1M sodium hydroxide solution
The plates were prefocused for 30 minutes to produce a pH gradient. The samples were loaded onto filter disks which lay on the gel. Focusing was continued for 30 minutes, the filter disks were removed and, after a further 30 minutes, focusing was stopped. The gels were immediately cut into 2 mm slices and transferred into distilled water. The protein eluted out of the gel slices overnight. The location of the thrombin inhibitor was determined by a thrombin inhibition assay. The pH can also be determined directly using a pH electrode.

Data set [2] deals with Thrombin. Put plainly: Determination of the inhibition of thrombin by the inhibitor (Chromozym TH optical assay). It is filed as biochemical. The settings on record: in vitro enzyme assay. On the procedure:
The purification of the protein can be monitored by a thrombin activity assay. It is expedient to use an optical assay in which a chromogenic substrate, for example Chromozym T, is converted by thrombin. The fractions containing the novel protein can be identified by their thrombin-inhibiting action on addition to this optical assay.
Thrombin (Boehringer Mannheim) was dissolved to a final concentration of 25 mU/ml in phosphate-buffered saline (PBS) ([…], […], 0.144 g/l sodium phosphate, 0.2 g/l potassium phosphate, pH 7.5).
Chromozym TH (Boehringer Mannheim) was dissolved in 20 ml of H2 O per vial.
50 μl of thrombin solution and 100 μl of Chromozym plus 25 μl of sample or buffer were placed in the wells of a microtiter plate. The absorption at 405 nm was measured at 37° C. immediately thereafter at time 0 and after 30 minutes.
When the sample was deeply colored another control without thrombin was treated as described above.
The activity of thrombin liberates a dye which absorbs at 405 nm from the chromogenic substrate. Inhibition of the thrombin by a thrombin inhibitor is evident from a smaller increase in the absorption at 405 nm and was quantified using a calibration plot.

Data set [3] concerns Thrombin. The data set can be described thus: Binding to affinity column with immobilized thrombin. The settings on record: immobilized thrombin on Sepharose. As to the method: The combined active fractions were loaded onto an affinity column with immobilized thrombin (diameter 1.5 cm, height 6.5 cm, volume 11.5 ml, 60 ml/h). The column was prepared as in Example 3.
The column was equilibrated with 20 mM sodium phosphate pH 7.5. After the protein solution had been loaded onto the column it was washed with 10 column volumes of equilibration buffer until the absorption at 280 nm decreased to zero.
It was then washed with 0.5M NaCl, 20 mM sodium phosphate buffer pH 7.5. This removed non-specifically adsorbed material.
Protein specifically bound to thrombin was eluted with 0.1M glycine, 0.5M NaCl pH 2.8. The column was then immediately readjusted to pH 7.5 with phosphate buffer.
2 g of CNBr-activated Sepharose (Pharmacia) were washed with 200 ml of 1 mM HCl on a suction funnel. The gel was taken up in 100 mM NaHCO3, 500 mM NaCl pH 8.3 and immediately mixed with 10,000 units of thrombin (Sigma) in 100 mM NaHCO3, 500 mM NaCl, pH 8.3.
The solution was gently shaken at 4° C. for 24 hours.
The gel material was allowed to settle and then washed with 100 mM NaHCO3, 500 mM NaCl, pH 8.3. The Sepharose was then incubated with 100 mM NaHCO3, 500 mM NaCl, 1M ethanolamine pH 8.3 for 2 hours.
To remove unbound thrombin, before use the gel material is washed once more in the column with 20 column volumes of PBS pH 7.4.

Consider hirudin [reference compound], for which, in data set [1], the isoelectric point is at most 3.5 pH.

B1: novel protein: Thrombin-inhibitory protein isolated from assassin bugs (Rhodnius prolixus); contains 103 amino acids of SEQ ID NO: 3, N-terminus SEQ ID NO: 1 (protein)
chain: EGGEPCACPHALHRVCGSDGETYSNPCTLNCAKFNGKPELVKVHDGPCEPDEDEDVCQECDGDEYKPVCGSDDITYDNNCRLECASISSSPGVELKHEGPCRT
Turning to B1, the “inhibition of the biological activity of thrombin” value in the data set on Thrombin [2] is on record as “inhibits the biological activity of thrombin”. The isoelectric point is reported as 3.7-4.7 pH in data set [1] and 4.2±0.5 pH in data set [1] (listed as novel inhibitor). Besides, the “binding to thrombin affinity column” value with Thrombin [3] is “binds specifically to a thrombin affinity column”.
